Legend:
[1] = test system: Raji, Jurkat, U937 cells, primary mΦs, B cells, and DCs; experiment: AP and C5 gene transcription in leukocytes by qPCR; format: cell-based; conditions: 10 nM C5a
Description: ECs and leukocytes locally synthesize C3/fB/fD/C5 and the elicited C3a/C5a signal through C3aR/C5aR on the same cells to amplify this synthesis. To determine whether ECs locally synthesize AP complement components, we added IL-1/IFN-γ/TNF-α to HUVEC, 1 hr after which we quantified C3 and fB transcripts by qPCR. […] To test whether leukocytes that are recruited to sites of EC injury locally synthesize AP components and C5a similarly feeds back in them to amplify local complement production, we stimulated Raji, Jurkat, U937 cells, primary mΦs, B cells, and DCs with 10 nM C5a. This documented induction of AP and C5 gene transcription by qPCR.

[2] = test system: NIH-3T3 cells; experiment: Cell cycle assay of serum starved NIH-3T3 cells (PDGF study); format: cell-based; conditions: identical to adding PDGF
Procedure: (§1) Propidium iodide staining was performed as described previously […]. In brief, the cells were serum starved for 24 hrs followed by administration of 1 μM colchicine (Sigma). 16 hrs following colchicine treatment, cells were given either growth factor treatment or 17 ng/mL mC5a. After an additional 24 hrs, cells were removed from plating via Trypsin/EDTA and fixed in 0.25% Formaldehyde for 10 mins at 37° C. Cells were spun out of formaldehyde solution and resuspended in 90% methanol at 4° C. until assayed. Following removal from methanol, excess RNA was removed via treatment with RNase (Sigma) and stained with propidium iodide for 30 mins at 4° C. Cells were analyzed on an Epics XL.
PDGF contributes to atherogenesis and plays a central role in neointimal proliferation following EC injury. […] Following determination of optimal PDGF-AA doses, we incubated 1×10^5 cells/well in triplicate with 30 ng/ml of PDGF-AA±10 ng/ml of C3aR and C5aR antagonists (C3aR-A/C5aR-A), 10 ng/ml of anti-C3a/anti-C5a mAbs or respective controls, after which we quantified cell growth by counting cell numbers over time. […] To directly establish whether C5aR signals augment PDGF-AA growth signaling, we 1) quantified the effect of added C5a one growth, and 2) assayed C5a in culture supernatants of PDGF-AA treated cells. […]

[3] = test system: NIH-3T3 cells, bEND.3 ECs, TC-1 cancer cells; experiment: Cell cycle assay (propidium iodide staining) of serum starved cells; format: cell-based; conditions: C5a added to serum starved cells; identical to EGF or VEGF-A
Procedure: Because this dependence of growth factor responsiveness on C3aR/C5aR signaling could be indirect, i.e., a consequence of its requirement for viability, we performed cell cycle assays.
as §1

[4] = test system: VEGFR2; experiment: VEGFR2 phosphorylation immunoblot in serum starved primary WT aortic ECs; format: cell-based, murine; conditions: added C5a, relative to untreated controls
Procedure: FIG. 21 illustrates an immunoblot of VEGFR2 phosphorylation. C5a or VEGF-A was added to serum starved primary cultures of WT murine ECs in the absence or presence of C3aR-A/C5aR-A and VEGFR2 phosphorylation assessed by immunoblotting with anti […] mAb.
To directly establish whether C3aR/C5aR signaling is integral to VEGF signaling, we next evaluated phosphorylation of VEGFR2. We tested 1) how adding C5a to primary WT ECs affects VEGFR2 autophosphorylation and 2) whether VEGFR2 phosphorylation induced by added VEGF-A is affected by antagonizing C3aR/C5aR signaling. We incubated serum starved WT aortic ECs with C5a or with VEGF-A in the absence or presence of C3aR-A/C5aR-A, after which we probed immunoblots of protein lysates and anti-pVEGFR2^Y1054/1059 mAb or pan VEGFR2 antibody.

[5] = test system: HUVEC; experiment: Cell cycle assay of serum starved HUVEC; format: cell-based; conditions: identical to adding VEGF-A
Procedure: as §1
Because the disruptive effect of C3aR/C5aR antagonism on VEGF growth induction could be a consequence of the requirement of autocrine C3aR/C5aR signaling for EC viability, we performed cell cycle assays. […] These findings that autocrine C3aR/C5aR signaling not only prevents EC apoptosis but drives EC growth point to a bidirectional signaling mechanism wherein C3aR/C5aR GPCR signaling transactivates to VEGFR2 signaling and vice versa.

[6] = test system: NIH-3T3 fibroblasts; experiment: PDGF-AA growth induction of NIH-3T3 fibroblasts (cell counts over time); format: cell-based; conditions: added C5a by itself
Procedure: PDGF contributes to atherogenesis and plays a central role in neointimal proliferation following EC injury. In view of the growth difference of primary cultured Daf1^−/−, WT, C3aR^−/−C5aR^−/−, and C3^−/−C5^−/−SMCs, we examined whether C3aR/C5aR signals are interconnected with PDGF growth induction. For these studies, we utilized NIH-3T3 fibroblasts (which express PDGFR-αα) in conjunction with PDGF-AA. Following determination of optimal PDGF-AA doses, we incubated 1×10^5 cells/well in triplicate with 30 ng/ml of PDGF-AA±10 ng/ml of C3aR and C5aR antagonists (C3aR-A/C5aR-A), 10 ng/ml of anti-C3a/anti-C5a mAbs or respective controls, after which we quantified cell growth by counting cell numbers over time. […] To directly establish whether C5aR signals augment PDGF-AA growth signaling, we 1) quantified the effect of added C5a one growth, and 2) assayed C5a in culture supernatants of PDGF-AA treated cells. […] Because the dependence of PDGF growth induction on C3aR/C5aR signaling could be indirect, i.e., a consequence of its requirement for viability, we performed cell cycle assays.

[7] = test system: C5aR; experiment: Proinflammatory gene transcription induced by C5aR signaling; format: cell-based; conditions: added C5a
Description: In view of the connections of MCP-1 and other proinflammatory cytokines with atherosclerosis and the mechanistic linkage of DAF deficiency with potentiated C3aR/C5aR transduction, we tested whether C5aR signaling induces proinflammatory gene transcription. Added C5a induced the mRNA transcription of chemotactic MCP-1/IL-8, proinflammatory IL-1β/IL-6 and growth inductive GM-CSF.

[8] = test system: HUVEC; experiment: Complement mRNA transcripts in HUVEC by qPCR; format: cell-based; conditions: added C3a or C5a
Procedure: FIG. 33 illustrates charts showing qRT-PCR analysis of C3, factor B and factor D transcripts from HUVEC under hypoxia. A) HUVEC treated with TNF-α, IL-1, and IFN-γ. Blue bars represent samples after treatment. B-C) HUVEC stimulated with C3a (10 ng/ml for 2 hr) or C5a (10 ng/ml for 30 min) Blue bars represent control without C3a/C5a stimulation while red bars represent samples after stimulation. D) HUVEC incubated for 1 hr with FCCP+IAA. Blue bars represent control without hypoxia treatment while yellow bars represent two samples after hypoxia treatment.
We next conversely assessed how transducing C3aR/C5aR signals into ECs affects endogenous EC complement production and whether it is connected with “classical” EC responses. We incubated HUVEC with 1) inflammatory cytokines, 2) the mitochondrial uncoupler protonophore carbonyl cyanide p-(trifluoromethoxy)phenylhydrazone (FCCP)+iodoacetate (IAA) (which mimics hypoxia), or 3) C3a or C5a, after which we assayed complement mRNA transcripts by qPCR. […]
ECs and leukocytes locally synthesize C3/fB/fD/C5 and the elicited C3a/C5a signal through C3aR/C5aR on the same cells to amplify this synthesis. To determine whether ECs locally synthesize AP complement components, we added IL-1/IFN-γ/TNF-α to HUVEC, 1 hr after which we quantified C3 and fB transcripts by qPCR. […]

B1: C5a: complement activation fragment (anaphylatoxin) added to cells (protein, UniProt P01031 678-751, looked up)
C5a anaphylatoxin: TLQKKIEEIAAKYKHSVVKKCCYDGACVNNDETCEQRAARISLGPRCIKAFTECCVVASQLRANISHKDMQLGR
modifications: C5a anaphylatoxin
[1]
  AP and C5 gene transcription: induction
[2]
  cell cycle transition after adding C5a: transition from G0 into G2
[3]
  cell cycle transition after adding C5a: transition from G0 into G2
[4]
  VEGFR2 Y1054/1059 phosphorylation: increased
[5]
  cell cycle transition after adding C5a: transition from G0 into G2
[6]
  proliferation of NIH-3T3 cells: induced proliferation
[7]
  mRNA transcription of MCP-1/IL-8, IL-1β/IL-6 and GM-CSF: induced
[8]
  production of AP components by ECs: more AP components
  transcription of C3: increased

Source: patent US11130801B2, “Method for inhibiting platelet derived growth factor signaling with C3aR or C5aR antibodies” (CASE WESTERN RESERVE UNIVERSITY, priority 2011, dated 2021)
